# According to PMC10086252, “Tomato chlorosis virus CPm protein is a pathogenicity determinant and suppresses host local RNA silencing induced by single-stranded RNA”:
# Biological target: CPm (minor coat protein) (Tomato chlorosis virus, UniProt A0A088FMK1 1-669)
# Assay: EMSA; […], room temperature 30 min; […]; binding buffer, […]
# Conditions: protein: recombinant; tags: His (pET28a); label: 5'-biotin; single strand
binder,measurement,value
UCAACAGGAUCGAGCUUAAGG (ssRNA) [siRGFP-guide (single-stranded GFP RNA probe)],binding result,no binding
